Laboratory results published in the supplement of paper PMC7877785.
± gives the uncertainty stated by the source.

Assay: self-splicing fitness, log relative to wild type (ln ratio); higher = more splicing; Tetrahymena group I intron in knt gene, E. coli kanamycin selection, DiMSum; sequences stand for … in CUCUCU…GGAGGGAAAAGUUAUCAGGCAUGCACCUGGUAGCUAGUCUUUAAACCAAUAGAUUGCAUCGGUUUAAAAGGCAAGACCGUCAAAUUGCGGGAAAGGGGUCAACAGCCGUUCAGUACCAAGUCUCAGGGGAAACUUUGAGAUGGCCUUGCAAAGGGUAUGGUAAUAAGCUGACGGACAUGGUCCUAACCACGCAGCCAAGUCCUAAGUCAACAGAUCUUCUGUUGAUAUGGAUGCAGUUCACAGACUAAAUGUCGGUCGGGGAAGAUGUAUUCUUCUCAUAAGAUAUAGUCGGACCUCUCCUUAAUGGGAGCUAGCGGAUGAAGUGAUGCAACACUGGAGCCGCUGGGAACUAAUUUGUAUGCGAAAGUAUAUUGAUUAGUUUUGGAGUACUCGUGGUCG
Outline: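 DiMSum derived fitness as the error-weighted combination of fold changes across replicates, kanamycin versus no kanamycin, normalised to wild type. E. coli BL21(DE3) held the library, which randomised all eight P1ex-region intron nucleotides within the knt kanamycin-resistance gene on pET-22b(+). Six replicate transformations grew overnight at 37°C or 30°C on LB agar with or without 25 μg/mL kanamycin, also containing 100 μg/mL carbenicillin, 50 μM IPTG and 0.2% rhamnose, and pooled colonies were amplicon-sequenced on an Illumina HiSeq 2500.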

Row | Sequence | self-splicing fitness (ln) (30 °C) | self-splicing fitness (ln) (37 °C)
1 | GUCCAGCAAUAUUACGUGAC | -1.23 ± 0.13 | -1.93 ± 0.16
2 | GCGAAGCAAUAUUACGUUGG | -4.02 ± 0.17 | -2.97 ± 0.18
3 | UAUGAGCAAUAUUACGAGCU | -2.71 ± 0.2 | -2.09 ± 0.42
4 | GUAGAGCAAUAUUACGGUGG | -3.39 ± 0.45 | -0.894 ± 0.23
5 | ACUGAGCAAUAUUACGGGAA | -2.94 ± 0.17 | -2.48 ± 0.24
6 | UUUUAGCAAUAUUACGACUU | -1.64 ± 0.32 | -1.14 ± 0.33
7 | ACAAAGCAAUAUUACGGACA | -1.29 ± 0.13 | -0.782 ± 0.11
8 | GAUUAGCAAUAUUACGGUUA | -0.842 ± 0.14 | 0.0704 ± 0.15
9 | ACUAAGCAAUAUUACGCUCG | -0.345 ± 0.09 | -0.528 ± 0.11
10 | CGCAAGCAAUAUUACGACUA | -1.47 ± 0.22 | -0.703 ± 0.2
11 | AUUCAGCAAUAUUACGUUCG | -0.646 ± 0.06 | -0.898 ± 0.094
12 | UCAUAGCAAUAUUACGGUGC | -2.88 ± 0.21 | -3.08 ± 0.26
13 | UUCAAGCAAUAUUACGUCAG | -3.43 ± 0.2 | -1.23 ± 0.14
14 | GCGCAGCAAUAUUACGGACG | -2.17 ± 0.13 | -0.91 ± 0.15
15 | AGACAGCAAUAUUACGCGAA | -2.45 ± 0.12 | -0.878 ± 0.1
16 | UUGAAGCAAUAUUACGAGAG | -1.5 ± 0.12 | -0.926 ± 0.14
17 | UCCGAGCAAUAUUACGUGUA | -2.55 ± 0.086 | -1.9 ± 0.082
18 | CGCAAGCAAUAUUACGAUAA | -3.03 ± 0.19 | -1.51 ± 0.23
19 | CUAAAGCAAUAUUACGGCCA | -3.21 ± 0.31 | -2.08 ± 0.4
20 | CAUUAGCAAUAUUACGGUGA | -2.79 ± 0.19 | -1.92 ± 0.13
21 | UUUUAGCAAUAUUACGAACU | -1.75 ± 0.34 | -0.164 ± 0.23
22 | GAGUAGCAAUAUUACGCGCA | -1.93 ± 0.15 | -0.701 ± 0.2
23 | GCCUAGCAAUAUUACGUUCG | -2.74 ± 0.15 | -2.09 ± 0.19
24 | UACAAGCAAUAUUACGAAAA | -1.94 ± 0.19 | -1.22 ± 0.15
25 | GGGAAGCAAUAUUACGGCUU | -2.11 ± 0.2 | -1.41 ± 0.23
26 | UACGAGCAAUAUUACGUCGA | -2.65 ± 0.42 | -1.45 ± 0.25

Row | Sequence | self-splicing fitness (ln) (30 °C) | self-splicing fitness (ln) (37 °C)
27 | CCAAAGCAAUAUUACGUUUC | -4.24 ± 0.25 | -2.78 ± 0.24
28 | CACCAGCAAUAUUACGCGUA | -0.717 ± 0.061 | -0.165 ± 0.066
29 | UUAUAGCAAUAUUACGUCCG | -1.64 ± 0.17 | -1 ± 0.17
30 | CCUAAGCAAUAUUACGUCUA | -3.9 ± 0.24 | -3.48 ± 0.36
31 | CUGGAGCAAUAUUACGGGAC | 0.251 ± 0.35 | -1.08 ± 0.41
32 | AAUUAGCAAUAUUACGAUUC | -2.85 ± 0.24 | -1.13 ± 0.34
33 | GACGAGCAAUAUUACGGACU | -0.448 ± 0.15 | -0.75 ± 0.18
34 | CACUAGCAAUAUUACGCCCC | -0.891 ± 0.38 | -0.252 ± 0.47
35 | GUAGAGCAAUAUUACGGACA | -0.864 ± 0.17 | -1.72 ± 0.27
36 | UCUCAGCAAUAUUACGACGC |  | 0.221 ± 0.23
37 | AUCUAGCAAUAUUACGCUAG | -3.91 ± 0.27 | -3.5 ± 0.31
38 | UCGUAGCAAUAUUACGAAAG | -3.1 ± 0.17 | -2.16 ± 0.23
39 | ACUCAGCAAUAUUACGUGUC | -3.74 ± 0.16 | -2.21 ± 0.17
40 | GUAGAGCAAUAUUACGCAAG | -0.744 ± 0.22 | -1.49 ± 0.27
41 | CGGCAGCAAUAUUACGGUGA | -3.35 ± 0.21 | -1.75 ± 0.17
42 | UCAAAGCAAUAUUACGUUGU | -3.4 ± 0.13 | -2.02 ± 0.12
43 | UACUAGCAAUAUUACGGAUA | -1.72 ± 0.096 | -0.886 ± 0.092
44 | GUUUAGCAAUAUUACGCAAG | -2.45 ± 0.18 | -0.942 ± 0.17
45 | CAGCAGCAAUAUUACGCGAC | -2.71 ± 0.39 | -0.925 ± 0.25
46 | AAGAAGCAAUAUUACGGUUU | -1.44 ± 0.068 | -0.413 ± 0.087
47 | GGUGAGCAAUAUUACGAUUC | -0.904 ± 0.089 | 0.137 ± 0.11
48 | GUGCAGCAAUAUUACGGUGG | -1.63 ± 0.11 | -1.16 ± 0.13
49 | AAGAAGCAAUAUUACGCAUA | -1.29 ± 0.11 | -0.0901 ± 0.12
50 | GAGCAGCAAUAUUACGCAUA | -1.11 ± 0.099 | -0.606 ± 0.14
51 | AGUCAGCAAUAUUACGAUGC | -1.04 ± 0.097 | -0.00334 ± 0.11
52 | CGACAGCAAUAUUACGUAAC | -4.37 ± 0.23 | -2.03 ± 0.31

Row | Sequence | self-splicing fitness (ln) (30 °C) | self-splicing fitness (ln) (37 °C)
53 | CAUCAGCAAUAUUACGUUGU | -3.52 ± 0.14 | -2.92 ± 0.16
54 | CAUAAGCAAUAUUACGCUAA | -2.58 ± 0.3 | -0.864 ± 0.24
55 | AAUGAGCAAUAUUACGGCCC | -1.23 ± 0.47 | -1.48 ± 0.37
56 | CAAGAGCAAUAUUACGGUCC | -2.01 ± 0.35 | -1.76 ± 0.33
57 | ACAUAGCAAUAUUACGAACG | -1.2 ± 0.17 | -0.114 ± 0.28
58 | AGUCAGCAAUAUUACGUUCC | -1.13 ± 0.1 | -0.187 ± 0.12
59 | GCUGAGCAAUAUUACGGAUC | -1.43 ± 0.087 | -0.415 ± 0.12
60 | GUUGAGCAAUAUUACGGUCG |  | -1.73 ± 0.34
61 | CUGGAGCAAUAUUACGGAUG | -1.12 ± 0.16 | -0.927 ± 0.14
62 | AUUUAGCAAUAUUACGCAGG | -3.36 ± 0.38 | 
63 | GCUGAGCAAUAUUACGAAGG |  | -1.52 ± 0.28
64 | CUCAAGCAAUAUUACGUGGG | -4.05 ± 0.17 | -2.85 ± 0.15
65 | GAGAAGCAAUAUUACGUAGU | -2.89 ± 0.094 | -1.39 ± 0.097
66 | UAUCAGCAAUAUUACGAUAC | -3.07 ± 0.28 | -1.85 ± 0.25
67 | AAAAAGCAAUAUUACGACCA | -0.0993 ± 0.079 | -0.734 ± 0.09
68 | GAGUAGCAAUAUUACGACGC | -0.488 ± 0.12 | 0.137 ± 0.14
69 | CAUGAGCAAUAUUACGUUGA | -2.92 ± 0.18 | -3.4 ± 0.29
70 | CCCAAGCAAUAUUACGGAUG | -3.07 ± 0.1 | -2.49 ± 0.11
71 | UCUUAGCAAUAUUACGAGCA | -0.901 ± 0.15 | -0.00766 ± 0.15
72 | ACACAGCAAUAUUACGCGCA | -0.103 ± 0.064 | 0.225 ± 0.079
73 | AGGGAGCAAUAUUACGGGCU | -3.05 ± 0.27 | -2.49 ± 0.3
74 | UCGCAGCAAUAUUACGGAGU | -2.32 ± 0.21 | -1.92 ± 0.23
75 | AACUAGCAAUAUUACGACGU | -0.165 ± 0.069 | 0.653 ± 0.1
76 | AUGUAGCAAUAUUACGCACU | -0.786 ± 0.099 | 0.708 ± 0.14
77 | AUAUAGCAAUAUUACGCCAU | -1.32 ± 0.18 | -1.38 ± 0.21
